System: AncSZ
Test: phosphorylation enrichment, bacterial display (enrichment ratio); higher = better substrate or ligand; peptides without Tyr show the background
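Note: 11-residue human phosphosite peptides and single-mutation variants displayed on the E. coli surface, counted by deep sequencing, each peptide's frequency after selection divided by its frequency in the unselected input library; frequency after pTyr selection over input frequency; kinase dosed for 20-30% of maximal phosphorylation in three min.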

Row | Sequence | phosphorylation enrichment
1 | MEKEKYVSFIS [JMJD1C_Y596_YF] | 0.833
2 | ARSHIYTLASC [MEFV_Y741_F743L] | 1.05
3 | VFFGSYSCPFG [NKAP_Y104_R106C_YF] | 1.45
4 | LYEDRYLLGTS [ASS1_Y87] | 0.982
5 | FMCKVYSDRQP [FGFR1_Y280_P283R] | 1.52
6 | ELTTCYRKKCS [CCBE1_Y70_C75S] | 0.764
7 | GYEEAYSVSKK [PAFAH1B1_Y28_F31S] | 0.893
8 | SSQHRYSTPHT [RAF1_Y232_A237T] | 0.45
9 | VIKSSYQVAKA [CPT1B_Y534_E531K] | 0.588
10 | KDGNGYISVAE [CALM3_Y100_A103V] | 0.771
11 | GKANRYFSPNF [PTEN_Y336_D331G] | 0.622
12 | KGYCGYSYDDI [TMEM230_Y110_R108C] | 1.35
13 | SQSKGYRPKLY [SIPA1L3_Y1376_G1371S] | 0.719
14 | SVVVPYDPPEV [TP53_Y220_E221D] | 1.02
15 | FPKAHYHWLVL [APTX_Y214_R213H_YF] | 0.819
16 | TPGPNYCPGFN [USH2A_Y463_R464C_YF] | 0.334
17 | SGKSEYLLPVA [MYLK_Y611_R607G] | 1.08

Row | Sequence | phosphorylation enrichment
18 | YHRQLYHKCTH [F12_Y58] | 0.886
19 | RRAKGYPINLY [ITGB2_Y125_D128N] | 0.762
20 | ILGRTHYVNHE [NEDD4_Y627_Y627H] | 0.565
21 | KMKGEYFRFLA [YWHAG_Y130_D129E_YF] | 0.791
22 | KNEVFYQCPDQ [FBXO3_Y223] | 3.2
23 | PFVFFYSFLLK [PTEN_Y178_R173P_YF] | 1.99
24 | IPPRRYFRSGV [STAMBP_Y36] | 0.778
25 | PLQSEYSSITT [ITGB4_Y1760] | 1.89
26 | PVQAAYQKVVA [HBB_Y131] | 0.41
27 | QEKKGYFEDRC [GLUL_Y336_R341C] | 1.06
28 | GGEAIYAAPFA [Abl_opt_1995] | 4
29 | LNCDRYSAGLL [PDE6A_Y275_V277A] | 0.919
30 | EEQKKYYNATK [SCN5A_Y1494_M1498T] | 0.59
31 | PEFINYHQHNS [BTK_Y361_L358F] | 0.709
32 | PLSGEYFTLQI [TP53_Y327_D324S] | 3.93
33 | HSGVSYFINLC [IGF2R_Y2024_N2020S_YF] | 1.47

Target: EPHB1 (UniProt P54762)
Test: as above

Sequence of EPHB1 (P54762 whole entry, looked up): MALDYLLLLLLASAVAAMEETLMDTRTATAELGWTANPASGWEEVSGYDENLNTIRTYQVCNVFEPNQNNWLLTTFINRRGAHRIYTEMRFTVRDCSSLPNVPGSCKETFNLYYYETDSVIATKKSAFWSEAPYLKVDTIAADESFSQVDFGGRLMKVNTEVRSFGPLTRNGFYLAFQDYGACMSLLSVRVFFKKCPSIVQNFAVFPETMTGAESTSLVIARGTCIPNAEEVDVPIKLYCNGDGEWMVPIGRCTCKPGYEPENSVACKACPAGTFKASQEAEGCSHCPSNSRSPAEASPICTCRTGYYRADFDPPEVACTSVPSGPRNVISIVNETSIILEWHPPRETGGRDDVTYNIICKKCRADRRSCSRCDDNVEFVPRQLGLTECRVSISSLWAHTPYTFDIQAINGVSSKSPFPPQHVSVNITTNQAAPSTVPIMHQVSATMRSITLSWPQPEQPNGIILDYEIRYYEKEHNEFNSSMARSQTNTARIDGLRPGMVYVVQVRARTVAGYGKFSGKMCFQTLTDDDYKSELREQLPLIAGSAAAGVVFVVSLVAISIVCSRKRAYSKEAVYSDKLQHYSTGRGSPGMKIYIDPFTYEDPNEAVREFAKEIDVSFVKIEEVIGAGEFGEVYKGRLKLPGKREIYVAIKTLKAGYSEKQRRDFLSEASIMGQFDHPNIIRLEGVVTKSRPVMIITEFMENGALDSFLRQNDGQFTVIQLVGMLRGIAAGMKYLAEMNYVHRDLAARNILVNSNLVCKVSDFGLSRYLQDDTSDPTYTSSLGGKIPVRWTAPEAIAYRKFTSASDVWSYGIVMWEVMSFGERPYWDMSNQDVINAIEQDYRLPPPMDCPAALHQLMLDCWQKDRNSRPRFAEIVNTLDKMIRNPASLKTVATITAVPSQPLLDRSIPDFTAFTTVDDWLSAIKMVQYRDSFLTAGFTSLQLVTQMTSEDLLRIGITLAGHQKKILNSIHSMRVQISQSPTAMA

Row | Sequence | phosphorylation enrichment
34 | MEKEKYVSFIS [JMJD1C_Y596_YF] | 0.416
35 | ARSHIYTLASC [MEFV_Y741_F743L] | 0.598
36 | VFFGSYSCPFG [NKAP_Y104_R106C_YF] | 0.802
37 | LYEDRYLLGTS [ASS1_Y87] | 3.01
38 | FMCKVYSDRQP [FGFR1_Y280_P283R] | 0.577
39 | ELTTCYRKKCS [CCBE1_Y70_C75S] | 0.431
40 | GYEEAYSVSKK [PAFAH1B1_Y28_F31S] | 0.491
41 | SSQHRYSTPHT [RAF1_Y232_A237T] | 0.343
42 | VIKSSYQVAKA [CPT1B_Y534_E531K] | 0.364
43 | KDGNGYISVAE [CALM3_Y100_A103V] | 0.362
44 | GKANRYFSPNF [PTEN_Y336_D331G] | 0.379
45 | KGYCGYSYDDI [TMEM230_Y110_R108C] | 0.557
46 | SQSKGYRPKLY [SIPA1L3_Y1376_G1371S] | 0.336
47 | SVVVPYDPPEV [TP53_Y220_E221D] | 0.543
48 | FPKAHYHWLVL [APTX_Y214_R213H_YF] | 0.448
49 | TPGPNYCPGFN [USH2A_Y463_R464C_YF] | 0.499
50 | SGKSEYLLPVA [MYLK_Y611_R607G] | 0.486

Row | Sequence | phosphorylation enrichment
51 | YHRQLYHKCTH [F12_Y58] | 0.41
52 | RRAKGYPINLY [ITGB2_Y125_D128N] | 0.707
53 | ILGRTHYVNHE [NEDD4_Y627_Y627H] | 0.468
54 | KMKGEYFRFLA [YWHAG_Y130_D129E_YF] | 0.678
55 | KNEVFYQCPDQ [FBXO3_Y223] | 1.04
56 | PFVFFYSFLLK [PTEN_Y178_R173P_YF] | 1.07
57 | IPPRRYFRSGV [STAMBP_Y36] | 0.531
58 | PLQSEYSSITT [ITGB4_Y1760] | 3.14
59 | PVQAAYQKVVA [HBB_Y131] | 0.694
60 | QEKKGYFEDRC [GLUL_Y336_R341C] | 0.522
61 | GGEAIYAAPFA [Abl_opt_1995] | 20.2
62 | LNCDRYSAGLL [PDE6A_Y275_V277A] | 0.487
63 | EEQKKYYNATK [SCN5A_Y1494_M1498T] | 0.543
64 | PEFINYHQHNS [BTK_Y361_L358F] | 0.299
65 | PLSGEYFTLQI [TP53_Y327_D324S] | 1.82
66 | HSGVSYFINLC [IGF2R_Y2024_N2020S_YF] | 0.682

Target: EPHB2 (UniProt P29323)
Test: as above

Sequence of EPHB2 (P29323 whole entry, looked up): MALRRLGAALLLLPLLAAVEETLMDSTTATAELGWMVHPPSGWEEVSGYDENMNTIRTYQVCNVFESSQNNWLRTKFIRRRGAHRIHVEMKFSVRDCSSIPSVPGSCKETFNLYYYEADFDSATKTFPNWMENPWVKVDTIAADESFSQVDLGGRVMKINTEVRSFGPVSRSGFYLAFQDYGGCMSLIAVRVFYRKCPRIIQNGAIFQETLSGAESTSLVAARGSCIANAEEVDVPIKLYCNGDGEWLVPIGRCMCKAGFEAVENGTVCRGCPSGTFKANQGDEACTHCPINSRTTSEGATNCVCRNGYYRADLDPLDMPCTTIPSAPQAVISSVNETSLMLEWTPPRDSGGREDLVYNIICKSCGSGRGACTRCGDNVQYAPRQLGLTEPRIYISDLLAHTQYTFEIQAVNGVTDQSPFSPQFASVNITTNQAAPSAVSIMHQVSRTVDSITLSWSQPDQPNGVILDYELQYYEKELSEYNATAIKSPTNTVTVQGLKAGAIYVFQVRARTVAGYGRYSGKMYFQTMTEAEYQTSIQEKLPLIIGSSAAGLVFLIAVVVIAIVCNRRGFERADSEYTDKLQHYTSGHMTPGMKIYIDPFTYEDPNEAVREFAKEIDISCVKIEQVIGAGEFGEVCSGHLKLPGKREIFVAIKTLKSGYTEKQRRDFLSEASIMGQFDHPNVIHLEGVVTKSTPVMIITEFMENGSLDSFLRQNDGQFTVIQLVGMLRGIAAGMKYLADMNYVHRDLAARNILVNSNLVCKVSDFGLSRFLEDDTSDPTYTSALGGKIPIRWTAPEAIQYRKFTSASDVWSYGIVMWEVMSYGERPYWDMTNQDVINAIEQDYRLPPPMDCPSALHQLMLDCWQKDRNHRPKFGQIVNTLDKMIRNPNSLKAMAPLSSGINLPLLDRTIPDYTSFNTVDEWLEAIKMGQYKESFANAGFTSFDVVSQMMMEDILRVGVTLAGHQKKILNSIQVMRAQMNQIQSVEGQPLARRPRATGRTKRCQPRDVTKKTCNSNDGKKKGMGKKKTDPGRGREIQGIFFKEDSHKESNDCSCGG

Row | Sequence | phosphorylation enrichment
67 | MEKEKYVSFIS [JMJD1C_Y596_YF] | 0.417
68 | ARSHIYTLASC [MEFV_Y741_F743L] | 0.58
69 | VFFGSYSCPFG [NKAP_Y104_R106C_YF] | 0.786
70 | LYEDRYLLGTS [ASS1_Y87] | 1.23
71 | FMCKVYSDRQP [FGFR1_Y280_P283R] | 0.577
72 | ELTTCYRKKCS [CCBE1_Y70_C75S] | 0.565
73 | GYEEAYSVSKK [PAFAH1B1_Y28_F31S] | 0.432
74 | SSQHRYSTPHT [RAF1_Y232_A237T] | 0.37
75 | VIKSSYQVAKA [CPT1B_Y534_E531K] | 0.414
76 | KDGNGYISVAE [CALM3_Y100_A103V] | 0.485
77 | GKANRYFSPNF [PTEN_Y336_D331G] | 0.424
78 | KGYCGYSYDDI [TMEM230_Y110_R108C] | 0.536
79 | SQSKGYRPKLY [SIPA1L3_Y1376_G1371S] | 0.337
80 | SVVVPYDPPEV [TP53_Y220_E221D] | 0.51
81 | FPKAHYHWLVL [APTX_Y214_R213H_YF] | 0.491
82 | TPGPNYCPGFN [USH2A_Y463_R464C_YF] | 0.254
83 | SGKSEYLLPVA [MYLK_Y611_R607G] | 0.424

Row | Sequence | phosphorylation enrichment
84 | YHRQLYHKCTH [F12_Y58] | 0.537
85 | RRAKGYPINLY [ITGB2_Y125_D128N] | 0.853
86 | ILGRTHYVNHE [NEDD4_Y627_Y627H] | 0.671
87 | KMKGEYFRFLA [YWHAG_Y130_D129E_YF] | 0.567
88 | KNEVFYQCPDQ [FBXO3_Y223] | 2.03
89 | PFVFFYSFLLK [PTEN_Y178_R173P_YF] | 0.686
90 | IPPRRYFRSGV [STAMBP_Y36] | 0.523
91 | PLQSEYSSITT [ITGB4_Y1760] | 2.18
92 | PVQAAYQKVVA [HBB_Y131] | 0.536
93 | QEKKGYFEDRC [GLUL_Y336_R341C] | 0.631
94 | GGEAIYAAPFA [Abl_opt_1995] | 27.9
95 | LNCDRYSAGLL [PDE6A_Y275_V277A] | 0.481
96 | EEQKKYYNATK [SCN5A_Y1494_M1498T] | 0.521
97 | PEFINYHQHNS [BTK_Y361_L358F] | 0.515
98 | PLSGEYFTLQI [TP53_Y327_D324S] | 1.2
99 | HSGVSYFINLC [IGF2R_Y2024_N2020S_YF] | 0.558

Target: FGFR1 (UniProt P11362)
Test: as above

Sequence of FGFR1 (P11362 whole entry, looked up): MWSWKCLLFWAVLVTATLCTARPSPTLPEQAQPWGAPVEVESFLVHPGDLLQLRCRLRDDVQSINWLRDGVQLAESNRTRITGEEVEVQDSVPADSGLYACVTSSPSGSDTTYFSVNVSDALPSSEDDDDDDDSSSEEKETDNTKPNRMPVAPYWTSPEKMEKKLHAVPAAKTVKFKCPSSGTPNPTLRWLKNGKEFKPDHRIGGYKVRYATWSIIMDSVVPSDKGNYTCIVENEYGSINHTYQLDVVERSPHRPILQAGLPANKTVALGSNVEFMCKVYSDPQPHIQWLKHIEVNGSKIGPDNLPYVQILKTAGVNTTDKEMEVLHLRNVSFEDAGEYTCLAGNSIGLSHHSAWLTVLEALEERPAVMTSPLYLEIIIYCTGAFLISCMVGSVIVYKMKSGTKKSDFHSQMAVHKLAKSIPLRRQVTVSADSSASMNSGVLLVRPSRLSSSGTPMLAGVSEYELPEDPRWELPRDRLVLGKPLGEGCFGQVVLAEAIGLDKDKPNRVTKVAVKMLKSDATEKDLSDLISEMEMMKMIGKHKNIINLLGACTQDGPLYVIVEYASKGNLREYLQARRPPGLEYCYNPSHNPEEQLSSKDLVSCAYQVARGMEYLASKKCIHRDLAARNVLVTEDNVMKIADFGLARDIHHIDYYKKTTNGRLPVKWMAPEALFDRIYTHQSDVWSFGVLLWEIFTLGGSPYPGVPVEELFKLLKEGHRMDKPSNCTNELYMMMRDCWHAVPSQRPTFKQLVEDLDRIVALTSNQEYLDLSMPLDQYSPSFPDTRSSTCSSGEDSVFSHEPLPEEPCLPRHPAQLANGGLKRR

Row | Sequence | phosphorylation enrichment
100 | MEKEKYVSFIS [JMJD1C_Y596_YF] | 0.434
101 | ARSHIYTLASC [MEFV_Y741_F743L] | 0.541
102 | VFFGSYSCPFG [NKAP_Y104_R106C_YF] | 0.476
103 | LYEDRYLLGTS [ASS1_Y87] | 0.702
104 | FMCKVYSDRQP [FGFR1_Y280_P283R] | 0.494
105 | ELTTCYRKKCS [CCBE1_Y70_C75S] | 0.536
106 | GYEEAYSVSKK [PAFAH1B1_Y28_F31S] | 0.364
107 | SSQHRYSTPHT [RAF1_Y232_A237T] | 0.352
108 | VIKSSYQVAKA [CPT1B_Y534_E531K] | 0.391
109 | KDGNGYISVAE [CALM3_Y100_A103V] | 0.404
110 | GKANRYFSPNF [PTEN_Y336_D331G] | 0.455
111 | KGYCGYSYDDI [TMEM230_Y110_R108C] | 0.927
112 | SQSKGYRPKLY [SIPA1L3_Y1376_G1371S] | 0.424
113 | SVVVPYDPPEV [TP53_Y220_E221D] | 0.56
114 | FPKAHYHWLVL [APTX_Y214_R213H_YF] | 2.69
115 | TPGPNYCPGFN [USH2A_Y463_R464C_YF] | 0.515
116 | SGKSEYLLPVA [MYLK_Y611_R607G] | 0.456

Row | Sequence | phosphorylation enrichment
117 | YHRQLYHKCTH [F12_Y58] | 0.453
118 | RRAKGYPINLY [ITGB2_Y125_D128N] | 0.814
119 | ILGRTHYVNHE [NEDD4_Y627_Y627H] | 0.419
120 | KMKGEYFRFLA [YWHAG_Y130_D129E_YF] | 3.77
121 | KNEVFYQCPDQ [FBXO3_Y223] | 1.26
122 | PFVFFYSFLLK [PTEN_Y178_R173P_YF] | 0.751
123 | IPPRRYFRSGV [STAMBP_Y36] | 0.414
124 | PLQSEYSSITT [ITGB4_Y1760] | 1.08
125 | PVQAAYQKVVA [HBB_Y131] | 0.645
126 | QEKKGYFEDRC [GLUL_Y336_R341C] | 0.804
127 | GGEAIYAAPFA [Abl_opt_1995] | 2.48
128 | LNCDRYSAGLL [PDE6A_Y275_V277A] | 0.396
129 | EEQKKYYNATK [SCN5A_Y1494_M1498T] | 1.29
130 | PEFINYHQHNS [BTK_Y361_L358F] | 0.821
131 | PLSGEYFTLQI [TP53_Y327_D324S] | 13.7
132 | HSGVSYFINLC [IGF2R_Y2024_N2020S_YF] | 0.439

Reference: the supplement of paper PMC10065799, “High-throughput profiling of sequence recognition by tyrosine kinases and SH2 domains using bacterial peptide display” (eLife, 2023)
